We go through 51 substances from patent publication US11306156.

The first assay deals with tissue factor (TF) (human) (UniProt P13726). Briefly: SPR (ProteOn), Fab captured on anti-penta His, TF analyte, 1:1 fit.
tissue factor (TF) (human), sequence (P13726 33-251 limits assumed): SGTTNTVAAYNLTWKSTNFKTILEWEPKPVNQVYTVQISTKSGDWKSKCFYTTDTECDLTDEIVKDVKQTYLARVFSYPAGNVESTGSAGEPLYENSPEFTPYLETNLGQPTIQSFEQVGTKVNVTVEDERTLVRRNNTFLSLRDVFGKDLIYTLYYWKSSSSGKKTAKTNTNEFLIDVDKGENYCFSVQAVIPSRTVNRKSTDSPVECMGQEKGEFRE
The Kd is the free concentration of one partner at which half of the binding sites on the other are occupied at equilibrium, for simple one-to-one binding. With “H1L1 Fab heterodimer of LCCA set 9911 (D3H44 Fab; H: S188L; L: WT)”, the Kd amounted to 0.09 nM and the change in KD vs wild type, -(log(KD design)-log(KD wt)) was 0.27.

Take “H1L1 Fab heterodimer of LCCA set 9205 (D3H44 Fab; H: L124E_L143D_K145M; L: V133G_S176R_T178K)”: the equilibrium dissociation constant (Kd) is 0.28 nM and the change in KD vs wild type, -(log(KD design)-log(KD wt)) is -0.25.

As for “H1L1 Fab heterodimer of LCCA set 9734 (D3H44 Fab; H: L143K_D146G; L: Q124E_V133D)”, the equilibrium dissociation constant (Kd) was determined as 0.26 nM and the change in KD vs wild type, -(log(KD design)-log(KD wt)) was -0.22.

With “H1L1 Fab heterodimer of LCCA set 9906 (D3H44 Fab; H: S188G; L: S176L)”, the Kd is 0.11 nM and the change in KD vs wild type, -(log(KD design)-log(KD wt)) is 0.14.

“H1L1 Fab heterodimer of LCCA set 9068 (D3H44 Fab; H: F174G; L: S131T_S176F_T178F)” yielded a Kd of 0.13 nM and a change in KD vs wild type, -(log(KD design)-log(KD wt)) of 0.07.

Substance “H1L1 Fab heterodimer of LCCA set 9073 (D3H44 Fab; H: F174V; L: S131T_S176F_T178Y)” displayed a Kd of 0.14 nM and a change in KD vs wild type, -(log(KD design)-log(KD wt)) of 0.04.

Substance “H1L1 Fab heterodimer of LCCA set 9364 (D3H44 Fab; H: L124R_D146N_Q179K; L: V133G_S176D_T180E)” showed a Kd of 0.15 nM and a change in KD vs wild type, -(log(KD design)-log(KD wt)) of 0.01.

Substance “H1L1 Fab heterodimer of LCCA set 9725 (D3H44 Fab; H: L143E_K145T_S188L; L: Q124R_Q160K_T178R)” registered a Kd of 0.24 nM and a change in KD vs wild type, -(log(KD design)-log(KD wt)) of -0.19.

Take “H1L1 Fab heterodimer of LCCA set 9044 (D3H44 Fab; H: P175C_C233S; L: S162C_C214S)”: the Kd stood at 0.18 nM.

Consider “H1L1 Fab heterodimer of LCCA set 9071 (D3H44 Fab; H: F174V; L: S131T_S176F_T178F)”, for which the Kd stood at 0.21 nM and the change in KD vs wild type, -(log(KD design)-log(KD wt)) is -0.12.

Take “H1L1 Fab heterodimer of LCCA set 9987 (D3H44 Fab; H: L143E_K145T; L: Q124R_T178R)”: the equilibrium dissociation constant (Kd) came to 0.11 nM and the change in KD vs wild type, -(log(KD design)-log(KD wt)) worked out at 0.15.

In turn, “H1L1 Fab heterodimer of LCCA set 9737 (D3H44 Fab; H: L143R; L: Q124E_V133E)” gave a dissociation constant Kd of 0.2 nM and a change in KD vs wild type, -(log(KD design)-log(KD wt)) of -0.09.

The substance “H1L1 Fab heterodimer of LCCA set 9491 (D3H44 Fab; H: L124R_S186K; L: V133G_S176D_T180E)” came in with a dissociation constant (Kd) of 0.24 nM and a change in KD vs wild type, -(log(KD design)-log(KD wt)) of -0.19.

With “H1L1 Fab heterodimer of LCCA set 9100 (D3H44 Fab; H: L124A_Q179K; L: Q124E_V133W_T180E)”, the Kd was 0.12 nM and the change in KD vs wild type, -(log(KD design)-log(KD wt)) worked out at 0.1.

As to “H1L1 Fab heterodimer of LCCA set 6037 (D3H44 Fab; H: L124A; L: V133W)”, the dissociation constant (Kd) was 0.13 nM and the change in KD vs wild type, -(log(KD design)-log(KD wt)) came to 0.07.

In turn, “H1L1 Fab heterodimer of LCCA set 9175 (D3H44 Fab; H: L124E_L143D_K145M; L: Q124K_V133G_S176R)” returned a Kd of 0.25 nM and a change in KD vs wild type, -(log(KD design)-log(KD wt)) of -0.21.

As to “H1L1 Fab heterodimer of LCCA set 9704 (D3H44 Fab; H: L143E_K145T_S188L; L: Q124R)”, the Kd worked out at 0.21 nM and the change in KD vs wild type, -(log(KD design)-log(KD wt)) was -0.12.

The substance “H1L1 Fab heterodimer of LCCA set 9102 (D3H44 Fab; H: L124A_S186K; L: Q124E_V133W_T180E)” registered a dissociation constant Kd of 0.15 nM and a change in KD vs wild type, -(log(KD design)-log(KD wt)) of 0.02.

The substance “H1L1 Fab heterodimer of LCCA set 9573 (D3H44 Fab; H: L143A_Q179K; L: Q124E_V133Y_T180E)” registered a dissociation constant Kd of 0.27 nM and a change in KD vs wild type, -(log(KD design)-log(KD wt)) of -0.23.

The substance “H1L1 Fab heterodimer of LCCA set 9052 (D3H44 Fab; H: A139G_F174V_V190A; L: S131T_L135F_S176F_T178F)” gave a Kd of 0.14 nM and a change in KD vs wild type, -(log(KD design)-log(KD wt)) of 0.06.

For another assay, the target named is tissue factor (TF) antigen (UniProt P13726). Briefly: SPR (ProteOn), Fab captured on anti-penta-His, TF as analyte, 1:1 fit.
tissue factor (TF) antigen, sequence (P13726 33-251 limits assumed): as above
For “D3H44 Fab heterodimer, H L124A_S186K / L Q124E_V133W_T180E”, the Change in KD with respect to wild type (-(log(KD design) - log(KD wt))) was found to be 0.02 and the Kd worked out at 0.15 nM.

“D3H44 Fab heterodimer, H S186K / L Q124E_T178E_T180E” returned a Change in KD with respect to wild type (-(log(KD design) - log(KD wt))) of 0.02 and a dissociation constant (Kd) of 0.15 nM.

Substance “D3H44 Fab heterodimer, H Q179K / L Q124E_T178E_T180E” registered a Change in KD with respect to wild type (-(log(KD design) - log(KD wt))) of 0.1 and a dissociation constant Kd of 0.13 nM.

“D3H44 Fab heterodimer, H S186R / L Q124E_T178E_T180E”: the Change in KD with respect to wild type (-(log(KD design) - log(KD wt))) worked out at 0.49 and the dissociation constant (Kd) was 0.05 nM.

Substance “D3H44 Fab heterodimer, H L143E_K145T_S188L / L Q124R_Q160K_T178R” returned a Change in KD with respect to wild type (-(log(KD design) - log(KD wt))) of -0.19 and an equilibrium dissociation constant (Kd) of 0.24 nM.

The substance “D3H44 Fab heterodimer, H L143E_K145T / L Q124R_T178R” displayed a Change in KD with respect to wild type (-(log(KD design) - log(KD wt))) of 0.15 and a Kd of 0.11 nM.

Take “D3H44 Fab heterodimer, H L143E_K145T_Q179E_S188L / L Q124R_T178R”: the Change in KD with respect to wild type (-(log(KD design) - log(KD wt))) is -0.34 and the dissociation constant Kd worked out at 0.34 nM.

On to “D3H44 Fab heterodimer, H L143K_D146G / L Q124E_V133D”, for which the Change in KD with respect to wild type (-(log(KD design) - log(KD wt))) is -0.22 and the Kd was 0.25 nM.

As to “D3H44 Fab heterodimer, H Q179K / L Q124E_S131T_T178Y_T180E”, the Change in KD with respect to wild type (-(log(KD design) - log(KD wt))) was -0.01 and the dissociation constant (Kd) was 0.16 nM.

Substance “D3H44 Fab heterodimer, H S186K / L Q124E_S131T_T178Y_T180E” yielded a Change in KD with respect to wild type (-(log(KD design) - log(KD wt))) of 0.09 and a Kd of 0.13 nM.

The substance “D3H44 Fab heterodimer, H Q179R / L Q124E_S176L_T180E” gave a Change in KD with respect to wild type (-(log(KD design) - log(KD wt))) of -0.02 and an equilibrium dissociation constant (Kd) of 0.17 nM.

For the substance “D3H44 Fab heterodimer, H Q179K / L Q124E_Q160E_T178E”, the Change in KD with respect to wild type (-(log(KD design) - log(KD wt))) is -0.27 and the Kd is 0.29 nM.

Turning to “D3H44 Fab heterodimer, H Q179R / L Q124E_S131T_T178Y_T180E”, the Change in KD with respect to wild type (-(log(KD design) - log(KD wt))) was 0.07 and the dissociation constant Kd came to 0.13 nM.

The substance “D3H44 Fab heterodimer, H L124A_Q179K / L Q124E_V133W_T180E” yielded a Change in KD with respect to wild type (-(log(KD design) - log(KD wt))) of 0.1 and a Kd of 0.12 nM.

With “D3H44 Fab heterodimer, H Q179R / L Q124E_Q160E_T178E”, the Change in KD with respect to wild type (-(log(KD design) - log(KD wt))) was 0.16 and the Kd was 0.11 nM.

“D3H44 Fab heterodimer, H L143R / L Q124E_V133E_Q160M” yielded a Change in KD with respect to wild type (-(log(KD design) - log(KD wt))) of -0.21 and a Kd of 0.25 nM.

On to “D3H44 Fab heterodimer, H L143K / L Q124E_V133D_S176L”, for which the Change in KD with respect to wild type (-(log(KD design) - log(KD wt))) was -0.25 and the Kd was determined as 0.28 nM.

In turn, “D3H44 Fab heterodimer, H Q179K / L S131E” yielded a Change in KD with respect to wild type (-(log(KD design) - log(KD wt))) of 0.05 and a Kd of 0.14 nM.

“D3H44 Fab heterodimer, H Q179K / L Q124E_S131T_T178F_T180E” registered a Change in KD with respect to wild type (-(log(KD design) - log(KD wt))) of 0.13 and a dissociation constant Kd of 0.12 nM.

In the case of “D3H44 Fab heterodimer, H Q179K / L Q124E_S176L_T180E”, the Change in KD with respect to wild type (-(log(KD design) - log(KD wt))) came out at 0.28 and the Kd was 0.08 nM.

Substance “D3H44 Fab heterodimer, H S186K / L S131E” displayed a Change in KD with respect to wild type (-(log(KD design) - log(KD wt))) of 0.05 and an equilibrium dissociation constant (Kd) of 0.14 nM.

Turning to “D3H44 Fab heterodimer, H Q179R / L Q124E_T178E_T180E”, the Change in KD with respect to wild type (-(log(KD design) - log(KD wt))) was -0.01 and the dissociation constant Kd is 0.16 nM.

Consider “D3H44 Fab heterodimer, H L143A_Q179K / L Q124E_V133Y_T180E”, for which the Change in KD with respect to wild type (-(log(KD design) - log(KD wt))) was -0.23 and the Kd came out at 0.27 nM.

With “D3H44 Fab heterodimer, H S186K / L Q124E_S176L_T180E”, the Change in KD with respect to wild type (-(log(KD design) - log(KD wt))) worked out at 0.03 and the dissociation constant Kd stood at 0.15 nM.

Take “D3H44 Fab heterodimer, H L143R / L Q124E_V133E”: the Change in KD with respect to wild type (-(log(KD design) - log(KD wt))) was -0.09 and the Kd is 0.2 nM.

As for “D3H44 Fab heterodimer, H S186K / L Q124E_S131T_T178F_T180E”, the Change in KD with respect to wild type (-(log(KD design) - log(KD wt))) is -0.03 and the dissociation constant (Kd) was determined as 0.17 nM.

With “D3H44 Fab heterodimer, H S186K / L Q124E_T178E”, the Change in KD with respect to wild type (-(log(KD design) - log(KD wt))) came out at 0.01 and the dissociation constant (Kd) is 0.15 nM.

The substance “D3H44 Fab heterodimer, H L143R / L Q124E_V133E_S176L” gave a Change in KD with respect to wild type (-(log(KD design) - log(KD wt))) of -0.25 and a dissociation constant Kd of 0.28 nM.

Take “D3H44 Fab heterodimer, H Q179R / L Q124E_S131T_T178F_T180E”: the Change in KD with respect to wild type (-(log(KD design) - log(KD wt))) was 0.14 and the dissociation constant Kd turned out to be 0.11 nM.

In turn, “D3H44 Fab heterodimer, H L143E_K145T / L Q124R” showed a Change in KD with respect to wild type (-(log(KD design) - log(KD wt))) of -0.25 and a dissociation constant (Kd) of 0.28 nM.

The substance “D3H44 Fab heterodimer, H Q179R / L Q124E_T178E” yielded a Change in KD with respect to wild type (-(log(KD design) - log(KD wt))) of 0.04 and a Kd of 0.14 nM.
